This experiment has as its target recombinant secreted soluble PSCA with C-terminal 6XHis and MYC tag (human). Nature of the experiment: SPR (BIAcore), recombinant PSCA immobilised at low density (30 RU), mAb in solution. Background: SPR reads the build-up and loss of mass on a sensor chip optically.

recombinant secreted soluble PSCA with C-terminal 6XHis and MYC tag (human), sequence (chain, as listed by the source): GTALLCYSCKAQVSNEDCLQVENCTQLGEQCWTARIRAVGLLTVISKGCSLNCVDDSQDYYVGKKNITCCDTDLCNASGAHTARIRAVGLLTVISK

For orientation: Kd means the free concentration of one partner at which half of the binding sites on the other are occupied at equilibrium, for simple one-to-one binding. In general, kon refers to the second-order rate constant of association. On to anti-PSCA monoclonal antibody 1G8, for which the Kd was found to be 1 nM and the kon came out at 168000 M⁻¹ s⁻¹.

For the origin of these results see patent US7462691.
